Source: patent publication US12325863B2, “MDA-7/IL-24 secretory variants and methods of use” (Virginia Commonwealth University, priority 2018, dated 2025)

Key:
[1] = Sabutoclax and BI-97D6 in combination with MDA-7/IL-24; settings: combined with MDA-7/IL-24; earlier observation referred to
Experimental: To test a multi-target approach for treatment of prostate cancer bone metastases, experiments were conducted to target Mcl-1 inhibition and investigate the effects on NG-mda-7/IL-24 efficacy. […] In addition to these inhibitors, three commercially available targeted inhibitors were evaluated to determine potential synergistic effects with MDA-7/IL-24. […] Next, the therapeutic effect of MDA-7/IL-24 protein in combination with BI-97D6 was tested, in male athymic nude mice injected by the intracardiac route with human prostate cancer PC3-ML cells, resulting in bone metastases.

CD11b+Gr-1+ MDSCs = settings: single administration 5 mg/kg or 20 mg/kg i.p., 24 hours, spleen; FIG. 33
Experimental: 24 hrs. later, splenic CD11b+Gr-1+ MDSCs were assessed by FACS.
Twenty-four (24) hours later, splenic CD11b^+Gr-1^+ MDSCs were assessed by FACS.

[2] = test system: human prostate cancer PC3-ML cells; test: PC3-ML intracardiac bone metastasis model in athymic nude mice; format: in vivo; settings: single agent, versus control group
Experimental: To test a multi-target approach for treatment of prostate cancer bone metastases, experiments were conducted to target Mcl-1 inhibition and investigate the effects on NG-mda-7/IL-24 efficacy. Using NMR (nuclear magnetic resonance) and computational biology, two Mcl-1 inhibitors were identified (Sabutoclax and BI-97D6) and their activity was validated in immune competent mice in combination with MDA-7/IL-24. In addition to these inhibitors, three commercially available targeted inhibitors were evaluated to determine potential synergistic effects with MDA-7/IL-24. The three inhibitors were UMI-77 (showing selectivity to Mcl-1 over other members of the Bcl-2 family), Marinopyrrole A (selective inhibitor of Mcl-1), and A-1210477. […] Mcl-1 expression was elevated by 1.7-fold in RM1-BM (RM1-BM cells selected for enhanced metastasis to bone) as compared to RM1 cells, indicating functional relevance of Mcl-1 in this metastatic process. […] This further supported the cancer-specificity of specific Mcl-1 inhibitors. Next, the therapeutic effect of MDA-7/IL-24 protein in combination with BI-97D6 was tested, in male athymic nude mice injected by the intracardiac route with human prostate cancer PC3-ML cells, resulting in bone metastases.

[3] = test system: prostate cancer bone metastases (RMI-Luc cells); test: RM1-Luc bone metastases, OT-I T cells with or without MDA-7/IL-24 protein; format: in vivo, C57BL/6 mice; settings: OT-I in combination with protein i.v. 5 mg/kg body weight, 3 times; FIG. 29
Experimental: (§1) C57BL/6 mice established with experimental bone metastases via intratibial injection of ovalbumin-positive CaP RM1-Luc cells expressing luciferase were treated with OVA-specific T cells (OT-I) alone or in combination with recombinant MDA-7/IL-24 protein i.v. (5 mg/kg body weight, 3 times). Development of bone lesions was monitored by BLI. Luciferase intensity was quantified and is presented graphically.
as §1, with “intra-tibial” for “intratibial”, “prostate cancer RMI-Luc” for “CaP RM1-Luc”, “intravenously” for “i.v.”, “bioluminescent imaging (BLI) (FIG. 29 left panel).” for “BLI.”, “graphically (FIG. 29 graph).” for “graphically.”

CD8+ T cells = test: 3H-thymidine incorporation in stimulated CD8+ T cells; format: cell-based; settings: anti-CD3/CD28 stimulation, 20 ng/ml, p<0.05; FIG. 31A
Experimental: (§2) FIGS. 31A-31B show example results illustrating that MDA-7/IL-24 promotes T cell expansion and activation. FIG. 31A: CD8+ T cells were stimulated with anti-CD3/CD28 antibodies in the presence or absence of purified MDA-7/IL-24 protein (20 ng/ml). Cell proliferation was measured using ^3H-thymidine (TdR) incorporation assays. p<0.05. FIG. 31B: C57BL/6 mice were injected i.v. with MDA-7/IL-24 protein (10 μg) or PBS. 48 h later, lymph node cells were assessed for IFN-γ-producing CD8+ T cells by intracellular staining.
(§3) In subsequent experiments, CD8^+ T cells were stimulated with anti-CD3/CD28 antibodies in the presence or absence of purified MDA-7/IL-24 protein (20 ng/ml). Cell proliferation was measured using ^3H-thymidine (TdR) incorporation assays. p<0.05. […] C57BL/6 mice were injected intravenously with MDA-7/IL-24 protein (10 μg) or PBS; 48 hours later, lymph node cells were assessed for IFN-γ-producing CD8^+ T cells by intracellular staining.

[4] = test system: IFN-γ-producing CD8+ T cells; test: IFN-γ-producing CD8+ T cells in lymph nodes after i.v. protein; format: in vivo, C57BL/6 mice; settings: 10 μg i.v., 48 hours, lymph node cells; FIG. 31B
Experimental: as §2, §3

breast cancer cells = test: ER stress response and surface calreticulin in breast cancer cells; format: cell-based, mouse
Excerpt: FIGS. 41A-41C show example images illustrating that MDA-7/IL-24 therapy enhances immunogenicity of mouse mammary tumors. FIG. 41A: immunogenic BCa cell death induced by MDA-7/IL-24 therapy. BALB/c mice were immunized with irradiated, Ad.mda-7 (1,2) or Ad.null (3,4) infected 4T1 cells (MOI=1), challenged with live 4T1 cells. The images were taken two weeks' post-tumor challenge. […] FIG. 41C: MDA-7/IL-24 therapy triggers the surface presence of CRT, assessed by immunofluorescence staining (left) and immunoblotting analysis of plasma membrane or cytosolic fractions (right).
Immunogenic breast cancer cell death was induced by MDA-7/IL-24 therapy. BALB/c mice were immunized with irradiated, Ad.mda-7 (mouse 1 and 2) or Ad.null (mouse 3 and 4) infected 4T1 cells (MOI=1), and then challenged with live 4T1 cells. The images were taken two weeks' post-tumor challenge.

**Q.** For `Cc1cc2c(C(=O)NC[C@H](C)c3ccccc3)c(O)c(O)cc2c(O)c1-c1c(C)cc2c(C(=O)NC[C@H](C)c3ccccc3)c(O)c(O)cc2c1O` [BI-97C1, Sabutoclax], which antitumor synergy [1] is on record?
**A.** antitumor synergy

**Q.** And the “frequency of CD11b+Gr-1+ MDSCs” value (CD11b+Gr-1+ MDSCs)?
**A.** substantially reduced the frequency of CD11b^+Gr-1^+ MDSCs

B1: MDA-7/IL-24: Melanoma differentiation associated gene-7/Interleukin-24, secreted protein of the IL-10 family (protein)
chain: QEFHFGPCQVKGVVPQKLWEAFWAVKDTMQAQDNITSARLLQQEVLQNVSDAESCYLVHTLLEFYLKTVFKNYHNRTVEVRTLKSFSTLANNFVLIVSQLQPSQENEMFSIRDSAHRRFLLFRRAFKQLDVEAALTKALGEVDILLTWMQKFYKL
**Q.** With B1 as the molecule, how does the bone metastases [2] read?
**A.** statistically significant inhibition of bone metastases

**Q.** What about the “therapeutic potency of ATT on bone metastases (BLI)” value [3] of the same molecule?
**A.** significantly enhanced the therapeutic potency of ATT

**Q.** What about the “T cell proliferation (3H-thymidine incorporation)” value (CD8+ T cells) of the same molecule?
**A.** significantly enhanced the proliferation of T cells

**Q.** And the “frequency of IFN-γ-expressing CD8+ T cells” value [4]?
**A.** increased the frequency of IFN-γ-expressing CD8^+ T cells

**Q.** What about the “surface calreticulin (immunofluorescence, immunoblotting)” value (breast cancer cells; FIG. 41C) of the same molecule?
**A.** triggers the surface presence of calreticulin (CRT)

**Q.** What about the ER stress response (breast cancer cells; GRP78/BiP, GRP170, FIG. 41B) of the same molecule?
**A.** upregulation of ER-resident chaperones
